B1: Cytochrome c biogenesis ATP-binding export protein CcmA (Escherichia coli (strain K12)), P33931 (parent)
chain: MGMLEARELLCERDERTLFSGLSFTLNAGEWVQITGSNGAGKTTLLRLLTGLSRPDAGEVLWQGQPLHQVRDSYHQNLLWIGHQPGIKTRLTALENLHFYHRDGDTAQCLEALAQAGLAGFEDIPVNQLSAGQQRRVALARLWLTRATLWILDEPFTAIDVNGVDRLTQRMAQHTEQGGIVILTTHQPLNVAESKIRRISLTQTRAA
partner: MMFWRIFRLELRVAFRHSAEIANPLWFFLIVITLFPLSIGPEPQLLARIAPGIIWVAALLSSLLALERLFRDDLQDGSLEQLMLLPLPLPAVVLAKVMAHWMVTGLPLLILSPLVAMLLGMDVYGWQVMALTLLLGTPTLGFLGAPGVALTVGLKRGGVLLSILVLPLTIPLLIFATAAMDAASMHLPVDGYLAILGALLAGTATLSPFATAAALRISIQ
B2: Cytochrome c biogenesis ATP-binding export protein CcmA (Escherichia coli (strain K12)), P33931 (parent)
chain: B1 chain
partner: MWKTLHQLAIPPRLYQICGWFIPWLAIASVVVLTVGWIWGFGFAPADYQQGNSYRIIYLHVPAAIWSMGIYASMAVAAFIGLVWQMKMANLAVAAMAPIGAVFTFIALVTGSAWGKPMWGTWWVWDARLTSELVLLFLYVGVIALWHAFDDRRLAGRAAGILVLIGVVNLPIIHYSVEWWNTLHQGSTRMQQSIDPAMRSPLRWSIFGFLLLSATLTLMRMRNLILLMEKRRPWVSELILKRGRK

Variants of: B1
Conditions: with ccmb_ecoli ccmB

Variant	effect of a mutation on the interaction
MGMLEARELLCERDERTLFSGLSFTLNAGEWVQITGSNGAGKTTLLRLLTGLSRPDAGEVLWQGQPLHQVRDSYHQNLLWIGHQPGIKTRLTALENLHFYHRDGDTAQCLEALAQAGLAGFEDIPVNQLSAAQQRRVALARLWLTRATLWILDEPFTAIDVNGVDRLTQRMAQHTEQGGIVILTTHQPLNVAESKIRRISLTQTRAA [G132A]	with no effect

Variants of: B2
Conditions: with ccmc_ecoli ccmC

Variant	effect of a mutation on the interaction
MGMLEARELLCERDERTLFSGLSFTLNAGEWVQITGSNGAGKTTLLRLLTGLSRPDAGEVLWQGQPLHQVRDSYHQNLLWIGHQPGIKTRLTALENLHFYHRDGDTAQCLEALAQAGLAGFEDIPVNQLSAAQQRRVALARLWLTRATLWILDEPFTAIDVNGVDRLTQRMAQHTEQGGIVILTTHQPLNVAESKIRRISLTQTRAA [G132A]	with no effect
